According to patent publication US7994133B2, “Isozyme-specific antagonists of protein kinase C” (The Board of Trustees of the Leland Stanford Junior …, priority 2003, dated 2011):

Key:
GST-εRACK = biological target: T1, GST-εRACK (Homo sapiens, UniProt P35606); experiment: εRACK binding assay; conditions: for change of binding to εRACK in the presence of PL: with versus without phosphatidylserine and Sn-1,2 dioleoylglycerol
T1 construct: made in house; host or cells: Hi5 insect cells (baculovirus made in Sf9)
T1 sequence (P35606 2-906 limits assumed): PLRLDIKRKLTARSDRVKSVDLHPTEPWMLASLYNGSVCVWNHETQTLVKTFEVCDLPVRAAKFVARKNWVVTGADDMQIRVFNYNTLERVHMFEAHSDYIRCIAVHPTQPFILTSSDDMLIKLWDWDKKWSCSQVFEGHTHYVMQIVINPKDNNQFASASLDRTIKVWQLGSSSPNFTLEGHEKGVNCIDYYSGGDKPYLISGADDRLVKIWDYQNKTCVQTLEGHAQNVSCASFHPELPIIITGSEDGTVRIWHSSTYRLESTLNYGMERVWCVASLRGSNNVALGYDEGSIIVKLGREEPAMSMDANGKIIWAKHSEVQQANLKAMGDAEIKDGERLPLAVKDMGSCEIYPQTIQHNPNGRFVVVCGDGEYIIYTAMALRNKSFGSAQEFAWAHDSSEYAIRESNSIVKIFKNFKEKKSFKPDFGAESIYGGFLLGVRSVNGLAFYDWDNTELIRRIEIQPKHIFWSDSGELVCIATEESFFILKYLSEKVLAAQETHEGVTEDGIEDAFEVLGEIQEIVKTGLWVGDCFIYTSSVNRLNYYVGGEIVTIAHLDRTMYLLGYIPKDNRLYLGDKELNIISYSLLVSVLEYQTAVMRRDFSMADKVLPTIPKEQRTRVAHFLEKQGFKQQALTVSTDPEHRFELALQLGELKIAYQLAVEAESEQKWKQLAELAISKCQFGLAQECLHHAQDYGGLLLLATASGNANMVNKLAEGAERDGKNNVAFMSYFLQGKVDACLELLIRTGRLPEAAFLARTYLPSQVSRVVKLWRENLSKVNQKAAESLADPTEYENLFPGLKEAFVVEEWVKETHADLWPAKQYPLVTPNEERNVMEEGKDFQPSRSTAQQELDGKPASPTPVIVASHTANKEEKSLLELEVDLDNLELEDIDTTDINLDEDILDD
Protocol: RACKs bind active PKC [Mochly-Rosen, D. & Gordon, A. S., FASEB J. 12:35-42 (1998); Mochly-Rosen, D. et al., Molec. Biol. Cell. (formerly Cell Regulation) 1:693-706 (1990).
Insect cells expressing either εPKC or GST-εRACK were lysed as described in Example 4. GST-εRACK, […] was immobilized on Glutathion-Sepharose 4B beads (Amersham-Pharmacia), and washed thoroughly with wash buffer (20 mM Tris-HCl pH 7.5, 2 mM EDTA, 100 mM NaCl, 12 mM βME, and 0.1% TritonX-100). Immobilized GST-εRACK was then incubated with the soluble fraction of insect cell lysates containing 100 ng Wt, D(86)A, or D(86)N εPKC protein, in the presence or absence of phospholipid activators (PL) (phosphatidylserine 12 μg/reaction and, Sn-1,2 dioleoylglycerol 400 ng/reaction) for 1 hour at 4° C. Upon thorough washing with wash buffer, bound proteins were eluted in SDS-PAGE sample buffer and proteins separated on 8% SDS-PAGE gels. The amount of εPKC interacting with εRACK was determined by Western blot probing for εPKC with anti εPKC-V5 antibodies. Blots were then re-probed with ant-GST (Santa Cruz) to verify that the same amount of GST-εRACK was present in each binding assay. All other methods for this Example were performed as described, for example, in Example 4.

[1] = Fluorescence recovery after photobleaching (FRAP) of cytoplasmic εPKCs; assay type: cell-based; conditions: average of at least 10 cells
Protocol: CHO cells were grown on glass coverslips, and serum-starved as described in Example 4. For each experiment, cells were transferred to a commercially available metal coverslip holder (Molecular Probes) in which the coverslip formed the bottom of a 1 ml bath. The media was then replaced with extracellular buffer (120 mM NaCl, 5 mM KCl, 1.5 mM CaCl2, 1.5 mM MgCl2, 20 mM HEPES and 30 mM glucose). Cells were stimulated by either PMA (100 nM), or with ATP (1 mM) in extracellular buffer. Fluorescence images of GFP-tagged constructs were obtained using the 488 nm excitation line of a laser scanning confocal microscope (Pascal, Zeiss) and emission was collected through a 505-550 nm band pass filter. Cells were imaged on the stage of an inverted microscope (Axiovert 100M) using a 40× Zeiss Plan-apo oil immersion objective with 1.2 numerical aperture (NA). For dual color imaging of CFP and YFP fusion proteins, a spinning disk Nipkow confocal microscope was used. Cells were viewed using an inverted Olympus IX70 microscope with a 40× oil immersion Olympus objective (1.35NA) and images were acquired with a CCD camera (Hamamatsu) and 2×2 pixel binning. […] Under these conditions, and by placing an iris in the beam path, it was possible to bleach 80% of the YFP fluorescence in 500 ms in an area of the cytosol measuring approximately 35 um2. […] Images were exported as 12 or 16 bit files and changes in fluorescence intensity were measured using MetaMorph® data analysis software (Universal Imaging Corp.). To monitor the translocation of PKC, a small region of interest was selected in the cytosol of each cell and fluorescence intensity values graphed against time after subtraction of background values and normalized so that the initial fluorescence was 100%. […]
Different translocation rates may reflect differences in overall mobility (diffusion) of the εPKCs in cells. Therefore, fluorescence recovery after photobleaching (FRAP) of the cytoplasmic enzyme was measured; mobility of εPKCs was measured by monitoring the time required for the fluorescence to recover in a bleached region. […]

Molecule | binding to εRACK relative to D(86)N or Wt (GST-εRACK; absence of PL activators) | change of binding to εRACK in the presence of PL (GST-εRACK) | time to fifty percent FRAP [1] [s] | εRACK binding compared with D(86)A or Wt (GST-εRACK; presence of an equal concentration of PL)
D(86)A: εPKC mutant wherein D at position 86 of ΨεRACK on εPKC is substituted with an A (protein) MVVFNGLLKIKICEAVSLKPTAWSLRHAVGPRPATFLLDPYIALNVDDSRIGQTATKQKTNSPAWHDEFVTDVCNGRKIELAVFHAAPIGYDDFVANCTIQFEELLQNGSRHFEDWIDLEPEGRVYVIIDLSGSSGEAPKDNEERVFRERMRPRKRQGAVRRRVHQVNGHKFMATYLRQPTYCSHCRDFIWGVIGKQGYQCQVCTCVVHKRCHELIITKCAGLKKQETPDQVGSQRFSVNMPHKFGIHNYKVPTFCDHCGSLLWGLLRQGLQCKVCKMNVHRRCETNVAPNCGVDARGIAKVLADLGVTPDKITNSGQRRKKLIAGAESPQPASGGSPSEEDRSKSAPTSPCDQEIKELENNIRKALSFDNRGEEHRAASSPDGQLMSPGENGEVRQGQAKRLGLDEFNFIKVLGKGSFGKVMLAELKGKDEVYAVKVLKKDVILQDDDVDCTMTEKRILALARKHPYLTQLYCCFQTKDRLFFVMEYVNGGDLMFQIQRSRKFDEPRSRFYAAEVTSALMFLHQHGVIYRDLKLDNILLDAEGHCKLADFGMCKEGILNGVTTTTFCGTPDYIAPEILQELEYGPSVDWWALGVLMYEMMAGQPPFEADNEDDLFESILHDDVLYPVWLSKEAVSILKAFMTKNPHKRLGCVASQNGEDAIKQHPFFKEIDWVLLEQKKIKPPFKPRIKTKRDVNNFDQDFTREEPVLTLVDEAIVKQINQEEFKGFSYFGEDLMP | at least two fold greater | not increased | 9.2 ± 1.1 | –
D(86)N: εPKC mutant wherein D at position 86 of ΨεRACK in εPKC is substituted with an N (protein) MVVFNGLLKIKICEAVSLKPTAWSLRHAVGPRPATFLLDPYIALNVDDSRIGQTATKQKTNSPAWHDEFVTDVCNGRKIELAVFHNAPIGYDDFVANCTIQFEELLQNGSRHFEDWIDLEPEGRVYVIIDLSGSSGEAPKDNEERVFRERMRPRKRQGAVRRRVHQVNGHKFMATYLRQPTYCSHCRDFIWGVIGKQGYQCQVCTCVVHKRCHELIITKCAGLKKQETPDQVGSQRFSVNMPHKFGIHNYKVPTFCDHCGSLLWGLLRQGLQCKVCKMNVHRRCETNVAPNCGVDARGIAKVLADLGVTPDKITNSGQRRKKLIAGAESPQPASGGSPSEEDRSKSAPTSPCDQEIKELENNIRKALSFDNRGEEHRAASSPDGQLMSPGENGEVRQGQAKRLGLDEFNFIKVLGKGSFGKVMLAELKGKDEVYAVKVLKKDVILQDDDVDCTMTEKRILALARKHPYLTQLYCCFQTKDRLFFVMEYVNGGDLMFQIQRSRKFDEPRSRFYAAEVTSALMFLHQHGVIYRDLKLDNILLDAEGHCKLADFGMCKEGILNGVTTTTFCGTPDYIAPEILQELEYGPSVDWWALGVLMYEMMAGQPPFEADNEDDLFESILHDDVLYPVWLSKEAVSILKAFMTKNPHKRLGCVASQNGEDAIKQHPFFKEIDWVLLEQKKIKPPFKPRIKTKRDVNNFDQDFTREEPVLTLVDEAIVKQINQEEFKGFSYFGEDLMP | – | significantly increased | 9.1 ± 1.6 | less εRACK binding
Wt: wild type εPKC, human construct (protein) MVVFNGLLKIKICEAVSLKPTAWSLRHAVGPRPATFLLDPYIALNVDDSRIGQTATKQKTNSPAWHDEFVTDVCNGRKIELAVFHDAPIGYDDFVANCTIQFEELLQNGSRHFEDWIDLEPEGRVYVIIDLSGSSGEAPKDNEERVFRERMRPRKRQGAVRRRVHQVNGHKFMATYLRQPTYCSHCRDFIWGVIGKQGYQCQVCTCVVHKRCHELIITKCAGLKKQETPDQVGSQRFSVNMPHKFGIHNYKVPTFCDHCGSLLWGLLRQGLQCKVCKMNVHRRCETNVAPNCGVDARGIAKVLADLGVTPDKITNSGQRRKKLIAGAESPQPASGGSPSEEDRSKSAPTSPCDQEIKELENNIRKALSFDNRGEEHRAASSPDGQLMSPGENGEVRQGQAKRLGLDEFNFIKVLGKGSFGKVMLAELKGKDEVYAVKVLKKDVILQDDDVDCTMTEKRILALARKHPYLTQLYCCFQTKDRLFFVMEYVNGGDLMFQIQRSRKFDEPRSRFYAAEVTSALMFLHQHGVIYRDLKLDNILLDAEGHCKLADFGMCKEGILNGVTTTTFCGTPDYIAPEILQELEYGPSVDWWALGVLMYEMMAGQPPFEADNEDDLFESILHDDVLYPVWLSKEAVSILKAFMTKNPHKRLGCVASQNGEDAIKQHPFFKEIDWVLLEQKKIKPPFKPRIKTKRDVNNFDQDFTREEPVLTLVDEAIVKQINQEEFKGFSYFGEDLMP | – | significantly increased | 9.0 ± 1.2 | –
